The values below come from patent publication US20250361299A1 (published 2025).

The term EC50 denotes the midpoint of the concentration-response curve.

Experiment [1] has as its target T1, Human CD3 protein (human, UniProt P07766 23-126).
T1 chain: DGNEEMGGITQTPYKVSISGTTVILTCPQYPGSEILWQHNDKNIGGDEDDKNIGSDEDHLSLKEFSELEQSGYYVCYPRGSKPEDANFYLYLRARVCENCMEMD
The experiment is described as follows: ELISA; without uPA. A general note: In an ELISA, binding on a coated surface is turned into a signal by an enzyme label.

For experiment [2], the target named is T2, Recombinant human EGFR (human, UniProt P00533 25-645). The experiment is described as follows: ELISA; without uPA.
Experiment [3] addresses T1, Human CD3 protein. The experiment is described as follows: ELISA.
The target of experiment [4] is T2, Recombinant human EGFR. Kind of experiment: ELISA.
The target in experiment [5] is T1, Human CD3 protein. The experiment is described as follows: ELISA.
Experiment [6] concerns the target T2, Recombinant human EGFR. The experiment is described as follows: ELISA. The source holds these as a separate data set.
Experiment [7] concerns the target T1, Human CD3 protein. The experiment is described as follows: ELISA.
Experiment [8] addresses T2, Recombinant human EGFR. Kind of experiment: ELISA. The source holds these as a separate data set.

B1: 1.6.1M-Pa proBiTE (bispecific antibody)
heavy: QDGNEEMGGGSQDGNEEMGGIGGGSGGGGSGLSGRSDNHGGGGSEVQLVESGGGLVQPGGSLRLSCAASGFTFNTYAMNWVRQAPGKGLEWVARIRSKYNNYATYYADSVKGRFTISRDDSKNTLYLQMNSLRAEDTAVYYCARHGNFGSSYVSYFAYWGQGTTVTVSSASTKGPSVFPLAPSSKSTSGGTAALGCLVKDYFPEPVTVSWNSGALTSGVHTFPAVLQSSGLYSLSSVVTVPSSSLGTQTYICNVNHKPSNTKVDKKVEPKSCPPCPAPEAAGAPSVFLFPPKPKDTLMISRTPEVTCVVVDVSHEDPEVKFNWYVDGVEVHNAKTKPREEQYNSTYRVVSVLTVLHQDWLNGKEYKCKVSNKALPAPIEKTISKAKGQPREPQVYTLPPSRDELTKNQVSLLCLVKGFYPSDIAVEWESNGQPENNYKTTPPVLDSDGSFFLHSKLTVDKSRWQQGNVFSCSVMHEALHNHYTQKSLSLSPGK
light: QVQLQESGPGLVKPSETLSLTCTVSGGSVSSGDYYWTWIRQSPGKGLEWIGHIYYSGNTNYNPSLKSRLTISIDTSKTQFSLKLSSVTAADTAIYYCVRDRVTGAFDIWGQGTMVTVSSGGGGSGGGGSGGGGSGGGGSDIQMTQSPSSLSASVGDRVTITCQASQDISNYLNWYQQKPGKAPKLLIYDASNLETGVPSRFSGSGSGTDFTFTISSLQPEDIATYFCQHFDHLPLAFGGGTKVEIKGGGGSGGGGSGGGGSGGGGSEIVVTQSPATLSVSPGERATLSCRSSTGAVTTSNYANWVQQKPGQAPRGLIGGANKRAPGVPARFSGSLSGDEATLTISSLQSEDFAVYYCALWYSNLWVFGQGTKLEIKRTVAAPSVFIFPPSDEQLKSGTASVVCLLNNFYPREAKVQWKVDNALQSGNSQESVTEQDSKDSTYSLSSTLTLSKADYEKHKVYACEVTHQGLSSPVTKSFNRGECPPCPAPEAAGAPSVFLFPPKPKDTLMISRTPEVTCVVVDVSHEDPEVKFNWYVDGVEVHNAKTKPREEQYNSTYRVVSVLTVLHQDWLNGKEYKCKVSNKALPAPIEKTISKAKGQPREPQVYTLPPSRDELTKNQVSLLCLVKGFYPSDIAVEWESNGQPENNYKTTPPVLDSDGSFFLHSKLTVDKSRWQQGNVFSCSVMHEALHNHYTQKSLSLSPGK
With B1, the EC50 in the experiment with Human CD3 protein [1] is 47.2 µg/mL; with Recombinant human EGFR [2], 0.0154 µg/mL.

B2: 1.6.1M-Pa-Unmask iBiTE (bispecific antibody)
heavy: EVQLVESGGGLVQPGGSLRLSCAASGFTFNTYAMNWVRQAPGKGLEWVARIRSKYNNYATYYADSVKGRFTISRDDSKNTLYLQMNSLRAEDTAVYYCARHGNFGSSYVSYFAYWGQGTTVTVSSASTKGPSVFPLAPSSKSTSGGTAALGCLVKDYFPEPVTVSWNSGALTSGVHTFPAVLQSSGLYSLSSVVTVPSSSLGTQTYICNVNHKPSNTKVDKKVEPKSCPPCPAPEAAGAPSVFLFPPKPKDTLMISRTPEVTCVVVDVSHEDPEVKFNWYVDGVEVHNAKTKPREEQYNSTYRVVSVLTVLHQDWLNGKEYKCKVSNKALPAPIEKTISKAKGQPREPQVYTLPPSRDELTKNQVSLLCLVKGFYPSDIAVEWESNGQPENNYKTTPPVLDSDGSFFLHSKLTVDKSRWQQGNVFSCSVMHEALHNHYTQKSLSLSPGK
light: QVQLQESGPGLVKPSETLSLTCTVSGGSVSSGDYYWTWIRQSPGKGLEWIGHIYYSGNTNYNPSLKSRLTISIDTSKTQFSLKLSSVTAADTAIYYCVRDRVTGAFDIWGQGTMVTVSSGGGGSGGGGSGGGGSGGGGSDIQMTQSPSSLSASVGDRVTITCQASQDISNYLNWYQQKPGKAPKLLIYDASNLETGVPSRFSGSGSGTDFTFTISSLQPEDIATYFCQHFDHLPLAFGGGTKVEIKGGGGSGGGGSGGGGSGGGGSEIVVTQSPATLSVSPGERATLSCRSSTGAVTTSNYANWVQQKPGQAPRGLIGGANKRAPGVPARFSGSLSGDEATLTISSLQSEDFAVYYCALWYSNLWVFGQGTKLEIKRTVAAPSVFIFPPSDEQLKSGTASVVCLLNNFYPREAKVQWKVDNALQSGNSQESVTEQDSKDSTYSLSSTLTLSKADYEKHKVYACEVTHQGLSSPVTKSFNRGECPPCPAPEAAGAPSVFLFPPKPKDTLMISRTPEVTCVVVDVSHEDPEVKFNWYVDGVEVHNAKTKPREEQYNSTYRVVSVLTVLHQDWLNGKEYKCKVSNKALPAPIEKTISKAKGQPREPQVYTLPPSRDELTKNQVSLLCLVKGFYPSDIAVEWESNGQPENNYKTTPPVLDSDGSFFLHSKLTVDKSRWQQGNVFSCSVMHEALHNHYTQKSLSLSPGK
With B2, the EC50 was 0.462 µg/mL with Human CD3 protein [3] and 0.0106 µg/mL with Recombinant human EGFR [4].

B3: 1.6.1M-Pa-CTR (antibody)
chain 1: EVQLVESGGGLVQPGGSLRLSCAASGFTFNTYAMNWVRQAPGKGLEWVARIRSKYNNYATYYADSVKGRFTISRDDSKNTLYLQMNSLRAEDTAVYYCARHGNFGSSYVSYFAYWGQGTTVTVSSASTKGPSVFPLAPSSKSTSGGTAALGCLVKDYFPEPVTVSWNSGALTSGVHTFPAVLQSSGLYSLSSVVTVPSSSLGTQTYICNVNHKPSNTKVDKKVEPKSCPPCPAPEAAGAPSVFLFPPKPKDTLMISRTPEVTCVVVDVSHEDPEVKFNWYVDGVEVHNAKTKPREEQYNSTYRVVSVLTVLHQDWLNGKEYKCKVSNKALPAPIEKTISKAKGQPREPQVYTLPPSRDELTKNQVSLLCLVKGFYPSDIAVEWESNGQPENNYKTTPPVLDSDGSFFLHSKLTVDKSRWQQGNVFSCSVMHEALHNHYTQKSLSLSPGK
chain 2: QVQLQESGPGLVKPSETLSLTCTVSGGSVSSGDYYWTWIRQSPGKGLEWIGHIYYSGNTNYNPSLKSRLTISIDTSKTQFSLKLSSVTAADTAIYYCVRDRVTGAFDIWGQGTMVTVSSGGGGSGGGGSGGGGSGGGGSDIQMTQSPSSLSASVGDRVTITCQASQDISNYLNWYQQKPGKAPKLLIYDASNLETGVPSRFSGSGSGTDFTFTISSLQPEDIATYFCQHFDHLPLAFGGGTKVEIKGGGGSGGGGSGGGGSGGGGSEIVVTQSPATLSVSPGERATLSCRSSTGAVTTSNYANWVQQKPGQAPRGLIGGANKRAPGVPARFSGSLSGDEATLTISSLQSEDFAVYYCALWYSNLWVFGQGTKLEIKRTVAAPSVFIFPPSDEQLKSGTASVVCLLNNFYPREAKVQWKVDNALQSGNSQESVTEQDSKDSTYSLSSTLTLSKADYEKHKVYACEVTHQGLSSPVTKSFNRGECPPCPAPEAAGAPSVFLFPPKPKDTLMISRTPEVTCVVVDVSHEDPEVKFNWYVDGVEVHNAKTKPREEQYNSTYRVVSVLTVLHQDWLNGKEYKCKVSNKALPAPIEKTISKAKGQPREPQVYTLPPSRDELTKNQVSLLCLVKGFYPSDIAVEWESNGQPENNYKTTPPVLDSDGSFFLHSKLTVDKSRWQQGNVFSCSVMHEALHNHYTQKSLSLSPGK
On to B3, for which the EC50 amounted to 0.613 µg/mL in the experiment with Human CD3 protein [5] and 0.0264 µg/mL in the experiment with Recombinant human EGFR [6].

B4: 1.6.1M-Pa-Noncleavable BiTE (bispecific antibody)
heavy: QDGNEEMGGGSQDGNEEMGGIGGGSGGGGSGLSGAGNHGGGGSEVQLVESGGGLVQPGGSLRLSCAASGFTFNTYAMNWVRQAPGKGLEWVARIRSKYNNYATYYADSVKGRFTISRDDSKNTLYLQMNSLRAEDTAVYYCARHGNFGSSYVSYFAYWGQGTTVTVSSASTKGPSVFPLAPSSKSTSGGTAALGCLVKDYFPEPVTVSWNSGALTSGVHTFPAVLQSSGLYSLSSVVTVPSSSLGTQTYICNVNHKPSNTKVDKKVEPKSCPPCPAPEAAGAPSVFLFPPKPKDTLMISRTPEVTCVVVDVSHEDPEVKFNWYVDGVEVHNAKTKPREEQYNSTYRVVSVLTVLHQDWLNGKEYKCKVSNKALPAPIEKTISKAKGQPREPQVYTLPPSRDELTKNQVSLLCLVKGFYPSDIAVEWESNGQPENNYKTTPPVLDSDGSFFLHSKLTVDKSRWQQGNVFSCSVMHEALHNHYTQKSLSLSPGK
light: QVQLQESGPGLVKPSETLSLTCTVSGGSVSSGDYYWTWIRQSPGKGLEWIGHIYYSGNTNYNPSLKSRLTISIDTSKTQFSLKLSSVTAADTAIYYCVRDRVTGAFDIWGQGTMVTVSSGGGGSGGGGSGGGGSGGGGSDIQMTQSPSSLSASVGDRVTITCQASQDISNYLNWYQQKPGKAPKLLIYDASNLETGVPSRFSGSGSGTDFTFTISSLQPEDIATYFCQHFDHLPLAFGGGTKVEIKGGGGSGGGGSGGGGSGGGGSEIVVTQSPATLSVSPGERATLSCRSSTGAVTTSNYANWVQQKPGQAPRGLIGGANKRAPGVPARFSGSLSGDEATLTISSLQSEDFAVYYCALWYSNLWVFGQGTKLEIKRTVAAPSVFIFPPSDEQLKSGTASVVCLLNNFYPREAKVQWKVDNALQSGNSQESVTEQDSKDSTYSLSSTLTLSKADYEKHKVYACEVTHQGLSSPVTKSFNRGECPPCPAPEAAGAPSVFLFPPKPKDTLMISRTPEVTCVVVDVSHEDPEVKFNWYVDGVEVHNAKTKPREEQYNSTYRVVSVLTVLHQDWLNGKEYKCKVSNKALPAPIEKTISKAKGQPREPQVYTLPPSRDELTKNQVSLLCLVKGFYPSDIAVEWESNGQPENNYKTTPPVLDSDGSFFLHSKLTVDKSRWQQGNVFSCSVMHEALHNHYTQKSLSLSPGK
In the case of B4, the figures for the EC50 in the experiment with Human CD3 protein [3] and with Recombinant human EGFR [4] were around 99500 µg/mL and 0.027 µg/mL, respectively.

B5: 1.4.3M-Pa-Noncleavable (antibody)
chain 1: QDGNEEMGGIGGGSQDGNEEMGGGGGSGGGSGGSEVQLVESGGGLVQPGGSLRLSCAASGFTFNTYAMNWVRQAPGKGLEWVARIRSKYNNYATYYADSVKGRFTISRDDSKNTLYLQMNSLRAEDTAVYYCARHGNFGSSYVSYFAYWGQGTTVTVSSGGGSSGGGGSGGGGSQVQLQESGPGLVKPSETLSLTCTVSGGSVSSGDYYWTWIRQSPGKGLEWIGHIYYSGNTNYNPSLKSRLTISIDTSKTQFSLKLSSVTAADTAIYYCVRDRVTGAFDIWGQGTMVTVSSASTKGPSVFPLAPSSKSTSGGTAALGCLVKDYFPEPVTVSWNSGALTSGVHTFPAVLQSSGLYSLSSVVTVPSSSLGTQTYICNVNHKPSNTKVDKKVEPKSCPPCPAPEAAGGPSVFLFPPKPKDTLMISRTPEVTCVVVDVSHEDPEVKFNWYVDGVEVHNAKTKPREEQYNSTYRVVSVLTVLHQDWLNGKEYKCKVSNKALPAPIEKTISKAKGQPREPQVYTLPPSRDELTKNQVSLLCLVKGFYPSDIAVEWESNGQPENNYKTTPPVLDSDGSFFLHSKLTVDKSRWQQGNVFSCSVMHEALHNHYTQKSLSLSPGK
chain 2: not shown
On to B5, for which the EC50 was found to be 7.43 µg/mL with Human CD3 protein [7] and 0.255 µg/mL in the experiment with Recombinant human EGFR [8].
